The text below walks through data of the nanobody polyreactivity screen of Harvey et al. (2022).

This data set can be described thus: yeast display, Sf9 membrane polyspecificity reagent, FACS + sequencing; frameworks hold sequencing errors. In short, it runs like this:
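Using colony PCR, genes from sorted yeast display clones were amplified, then sequenced on MiSeq at 2 × 250 and filtered by CDR length. The clones had been stained with 10% biotinylated, detergent-solubilized Sf9 membrane reagent for 1 hour at 4 °C and sorted by FACS into low and high (top ~1%) gates on anti-HA and streptavidin fluorescence. Polyreactivity labels come from the gate of origin.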
With “QVQLVESGGGLVQAGGSLRLSCAASGSTFSYNAMGWYRQAPGKERELVATISNTDSTNYADSVKGRFTISRDNAKNTVYLQMNSLKPEVTAVYYCAVVSARIDYEYWGQGTQVTVSS”, the “polyreactivity (PSR sort gate)” value is recorded as “low polyreactivity”. “QVQLVESGGGLVQAGGSLRLSCAASGSTFSYNAMVWYRQAPRKERELVAAISRRGDNTYYADSVKGRFTISRDNAKNTVYLQMYSLKPEDTAVYYCAAVGYFVKQYAPRYGYWGHGTQVTVSS”: the “polyreactivity (PSR sort gate)” value is listed as “low polyreactivity”.

In the case of “QVQLVESGGGLVQAGGSLRLSCAASGSTFSYNDMGWYRQAPGKERELVAAISSGGSTKYADSVKGRFTISRDNAKNTVYLQMNSLKPEDTAVYYCNVDVKGRPTFWSPFGRFDYWGQGTQVTVSS”, the “polyreactivity (PSR sort gate)” value is on record as “high polyreactivity”.

Consider “QVQLVESGGGLVQAGGSLRLSCAASGSTFSYNTMGWYRQAPGKERELVATISSSSGSTTYADSVKGRFTISRDIAKNTVYLQINSLKPEDTAVYYCNVDDPFYSGVVEFDYWGQGTQVTVSS”, for which the “polyreactivity (PSR sort gate)” value is recorded as “low polyreactivity”.

“QVQLVESGGGLVQAGGSLRLSCAASGSTFSYYAIGWYRQAPGKERELVAAISRRGGSTYYADSVKGRFTISRDNAKNTVYLQMNRLKPEDTAVYYCAADYYFSSRIEYYYWGQGTQVTVSS”: the “polyreactivity (PSR sort gate)” value was “high polyreactivity”.

With “QVQLVESGGGLVQAGGSLRLSCAASGSTFSYYAMGWYRKAPGKERELVAAITIGGRTNYADSVKGRFTISRDNAKNTVYFQMNSLKPEDTAVYYCAASRVRSLRSYVWDLLLMDSWGQGTQVTVSS”, the “polyreactivity (PSR sort gate)” value is “high polyreactivity”. On to “QVQLVESGGGLVQAGGSLRLSCAASGSTFSYYAMGWYRQAPGKERELVAAITRGGSTYYADSVKGRFTISRDNAKNTVYLQMNSLKPEDTAVYYWAGQLLRYRYYYWGQGTQVNVSS”, for which the “polyreactivity (PSR sort gate)” value is “high polyreactivity”.

On to “QVQLVESGGGLVQAGGSLRLSCAASGSTFSYYTMGWYRQSPGKERELVAVISTSGGNTYYADSVKGRFTISRDNAKNTVYLQMNSLKPEDTAVYYCAAAYPRVTYKNGYYWGQGTQVTVSS”, for which the “polyreactivity (PSR sort gate)” value is “high polyreactivity”. Then “QVQLVESGGGLVQAGGSLRLSCAASGSTFTANAMGWYRQAPGKERELVAAITNSDGSTYYADSVKGRFTISRDNAKNTVYLQMNSLKPEDTAVYYCAAPADSGITQVWQALSDYWGQGTQVTVSS”, with “low polyreactivity”; and “QVQLVESGGGLVQAGGSLRLSCAASGSTFTANAMGWYRQAPWKERELVAAITNSDGSTYYADSVKGRFTISRDNAKNTVYLQMNSLKPEDTAVYYCAKDYYACYWEMDYWGQGTQVTVSS”, with “low polyreactivity”. For “QVQLVESGGGLVQAGGSLRLSCAASGSTFTAYAMGWYRQAPGKERELVADISDSGGSTYYADSVKGRFTISRDNAKNTVYLQMNSLKPEDTAVYYCAVDVRAYVVSKFDSWGQGTQVTVSS”, the “polyreactivity (PSR sort gate)” value is reported as “low polyreactivity”. Then “QVQLVESGGGLVQAGGSLRLSCAASGSTFTAYAMGWYRQAPGKERELVADISKRSGGTYYADSVKGRFTISRDNAKNTVYLQMNSLKPEDTAVYYCGQGTQVTVSS”, with “low polyreactivity”; and “QVQLVESGGGLVQAGGSLRLSCAASGSTFTAYAMGWYRQAPGKERQLVAAISKRSGVTYYADSVKGRFTISRDNAKNTVYLQINSLKPEDTAVYYCGQGTQVTVSS”, with “low polyreactivity”. In the case of “QVQLVESGGGLVQAGGSLRLSCAASGSTFTDNGMVWYRQAPGKARELVAGISYSGGSTYYADSVKGRFRISRDNAKNTVYLQMNSLKPEDTAVYYCAADRGGYYLSEYDYWGQVTQVTVSS”, the “polyreactivity (PSR sort gate)” value is “low polyreactivity”. On to “QVQLVESGGGLVQAGGSLRLSCAASGSTFTENTMGWYRQAPGKERELVAAITDSGGSTYYADSVKGRFTISRDNAKNTVYLQMNSLKPEDTAVYYCAADVQPDTRSTPEMDYWGQGTQVTVSS”, for which the “polyreactivity (PSR sort gate)” value is “low polyreactivity”. As to “QVQLVESGGGLVQAGGSLRLSCAASGSTFTFNAMAWYRQAPGKEREFVAAITASGGRTYYADSVKGRFTISRDNAKNTVYLQMNSLKPEDTAVYYCNASQWPSRFDYWGQGTQVTVSS”, the “polyreactivity (PSR sort gate)” value is on record as “low polyreactivity”.

For the sequence “QVQLVESGGGLVQAGGSLRLSCAASGSTFTFNAMGWYRKAPGKERELVAAISGSDVTTYYADSVKGRFTISRDNAKNSVYLQMNSLKPEDTAVYYCAAESYVTTVTGPHTGDYWGQGTQVTVSS”, the “polyreactivity (PSR sort gate)” value is on record as “low polyreactivity”.

With “QVQLVESGGGLVQAGGSLRLSCAASGSTFTFNAMGWYRQAPGKERELVAAIRWSTGGTYYADSVKGRFTISRDNAKNTVYLQMNSLKPEDTAVYYCAAQFVPYFYFSKYDYWGQGTQVTVSS”, the “polyreactivity (PSR sort gate)” value is given as “low polyreactivity”.

Take “QVQLVESGGGLVQAGGSLRLSCAASGSTFTFYAMGWYRQAPGKERELVAAISGRGGSTYYADSVKGRFTISRDNAMNTVYLQMNSLKPEDTAVYYCAAGWSRVWRRDFGYWGQGTQVTVSS”: the “polyreactivity (PSR sort gate)” value is listed as “low polyreactivity”. For the sequence “QVQLVESGGGLVQAGGSLRLSCAASGSTFTFYAMGWYRQAPGKERELVASITQSTGSTHYADSVKGRFTISRDNAKNTVYLQMNSLKPEDTSVYYCNAQKIVYYWVTLFPYYYWGQGTQVTVSS”, the “polyreactivity (PSR sort gate)” value was “low polyreactivity”. Then “QVQLVESGGGLVQAGGSLRLSCAASGSTFTGNAMGWYSQAPGKERELVAAISRSGGRTYYADSVKGRFTISRDNAKNTVYLQMNSLKPEDTAVYYCNAVRNRGQRTAFDYWGQGTQVTVSS”, with “high polyreactivity”; and “QVQLVESGGGLVQAGGSLRLSCAASGSTFTGNSMGWYRQAPGKERELVAAISSSGASTYYADSVKGPFTISRDNAKNTVYLQMNSLKPEDTAVYYCAAELFYYPTPFREYDYWGQGTQVTVSS”, with “low polyreactivity”. In the case of “QVQLVESGGGLVQAGGSLRLSCAASGSTFTGYAMGWYRPAPGKERELVAGITGSGGSTYYADSVKGRFTISRDNAKNTVYLQMNSLKPEDTAVYYCAAELYDYGDLYYSEYDYWGQGTQVTVSS”, the “polyreactivity (PSR sort gate)” value was “low polyreactivity”. On to “QVQLVESGGGLVQAGGSLRLSCAASGSTFTGYAMGWYRQAPGKERELVAAISISGGRTFYADSVKGRFTISRDNAKNTVYLQMNSLKPEDTAVYYCAAYLRGSKYSFDYWGQGTQVTVSS”, for which the “polyreactivity (PSR sort gate)” value is reported as “high polyreactivity”. For “QVQLVESGGGLVQAGGSLRLSCAASGSTFTHYAMGWYRQAPGKERELVAAITSSGGSTYYADSVKGRFTISRDNAKNTVYLQMNSLKPEDTAVYYCAARGSYRNRYRHDYWGQGTQVTVSS”, the “polyreactivity (PSR sort gate)” value was “high polyreactivity”.

As to “QVQLVESGGGLVQAGGSLRLSCAASGSTFTINAMGWYRQAPGKERELVAAISRSGVRTFYADSVKGRFTNSRDNAKNTVYLQRNSLKPEDTAVYYCAKQTYRVTTDEGDYWGQGTQVTVSS”, the “polyreactivity (PSR sort gate)” value is listed as “high polyreactivity”. Take “QVQLVESGGGLVQAGGSLRLSCAASGSTFTINVMGWYRQAPGKERELVAAINGGGRTNYADSVKGRFTSSRDNAKNTVYLQMNSLKPEDTAVYYCAADGLSNVRQMDYWGQGTQVTVSS”: the “polyreactivity (PSR sort gate)” value is listed as “low polyreactivity”. On to “QVQLVESGGGLVQAGGSLRLSCAASGSTFTINVMGWYRQAPGKERELVAAINGGGRTNYADYVKGRFTISRDNAKNTVYLQMNSLKPEDTAVYYCAADCYTYWFYQLIPDYDYWGQGTQVTVSS”, for which the “polyreactivity (PSR sort gate)” value is “low polyreactivity”.

Regarding “QVQLVESGGGLVQAGGSLRLSCAASGSTFTINVMGWYRQSPGKERELVAAINGGGRTNYADSVKGRFTISRDNAKNTVYLQMNSLKPEDTAVYYCAADGLSNVRQMDYWGQGTQVTVSS”, the “polyreactivity (PSR sort gate)” value is given as “low polyreactivity”. Take “QVQLVESGGGLVQAGGSLRLSCAASGSTFTINVMGWYSQAPGKEREVVAAINGGGRTNYADSVKGRFTISRDHAKNTVNLQMNSLKPEDTAVYYCAADGLSNVRQMDYWGQGTQVTVSS”: the “polyreactivity (PSR sort gate)” value is recorded as “low polyreactivity”.

Consider “QVQLVESGGGLVQAGGSLRLSCAASGSTFTIYAMGWYRPAPGKERELVAAIDWSGGGTDYADSVKGRFTISRDNAKNTVYLQMNSLKPEDTAVYYCAAETFYDYGGYDYWGQGTQVTVSS”, for which the “polyreactivity (PSR sort gate)” value is “low polyreactivity”. Then “QVQLVESGGGLVQAGGSLRLSCAASGSTFTKNVMGWYRQAPGKERELVAAISSGGRTNYADSVKGRFTISRDNAKNTVYLQMNSLKPEDTAVYYCAADVGYFKSDYWGQGTQVTVSS”, with “low polyreactivity”. Take “QVQLVESGGGLVQAGGSLRLSCAASGSTFTKYAMGWYRKAPGKERELVAAITYSGGRTYYADSVKGRFTISRDNAKNTVYLQMNSLKPEDTAVYYCAAATYAGKPMEYWGQGTQVTVSS”: the “polyreactivity (PSR sort gate)” value is recorded as “high polyreactivity”. Consider “QVQLVESGGGLVQAGGSLRLSCAASGSTFTLYAMGWYRQAPGQERELVAAIRRGGSTNYADSVKGRFTISRDNAKNPVYLQMNSLKPEDTAVYYSAADTYTSRSRYSGSGGYDYWGQGTQVTVSS”, for which the “polyreactivity (PSR sort gate)” value is given as “low polyreactivity”.

As for “QVQLVESGGGLVQAGGSLRLSCAASGSTFTPNDMGWYRQAPGKERELVAAINSGGGRTYYADSVKGRFTISRDNAKNTVYLQMNSLKPEDTAVYYCAKRLYISGYGYGYWGQGTQVTVSS”, the “polyreactivity (PSR sort gate)” value is “high polyreactivity”.

For the sequence “QVQLVESGGGLVQAGGSLRLSCAASGSTFTPYAMGWHRQAPGKERELVAAITIRGGSTYYADSVKGRFTISRDNAKNTVYLQMYSLKPEDTAVYYCAREYIFSVYDYSTSYYYWGQGTQVTVSS”, the “polyreactivity (PSR sort gate)” value is recorded as “low polyreactivity”.

As to “QVQLVESGGGLVQAGGSLRLSCAASGSTFTQYAMGWYRQAPGKERELVAAINSRGDSTYYADSVKGRFTISRDNAKNTVYLQMNSLKPEDTAVYYCAATGYLSYYQQDLWLEYYYWGQGTQVTVSS”, the “polyreactivity (PSR sort gate)” value was “low polyreactivity”. For the sequence “QVQLVESGGGLVQAGGSLRLSCAASGSTFTQYAMGWYRQAPGKERELVATISRRGTRTYYADSVKGRFTISRDNAKNTVYLQMNSLKPEDTAVYYCAADNGPYRTIGYDSWGQGTQVTVSS”, the “polyreactivity (PSR sort gate)” value was “high polyreactivity”. With “QVQLVESGGGLVQAGGSLRLSCAASGSTFTQYVMGWYRQAPGKERELVAAISDSGSTYYADSVKGRFTISRDNAKNTVYLQMNSLKPEDTAVYYCNADDVEFYYGYGYLDYDYWGQGTQVTVSS”, the “polyreactivity (PSR sort gate)” value is “low polyreactivity”.

On to “QVQLVESGGGLVQAGGSLRLSCAASGSTFTRNAMGWYRQAPGKERELVARISRSGGSTYYADSVKGRFTISRDNAKNSVYLQMNSLKPEDTAVYDCNKDWYPRYPYVKGERDYWGEGTQVTVSS”, for which the “polyreactivity (PSR sort gate)” value is given as “high polyreactivity”. Under “QVQLVESGGGLVQAGGSLRLSCAASGSTFTRNAMGWYRQAPGKERELVATISSGGSTNYADSVKGRFTISRDNAKNTVYLQMNSLKPEDTAVYYCAKRSLYRYYYWGQGTQVTVSS” stands “high polyreactivity”.
